Measurements from IntAct's records for PubMed 9697699.

B1: Serine hydrolase RBBP9 (Rattus norvegicus (Rat)), O88350 (parent)
chain: MASPTKAVIVPGNGGGDVATHGWYGWVRKGLEQIPGFQCLAKNMPDPITARESIWLPFMETELHCDEKTIIIGHSSGAIAAMRYAETHQVYALILVSAYTSDLGDENERASGYFSRPWQWEKIKANCPHIIQFGSTDDPFLPWKEQQEVADRLDAKLYKFTDRGHFQNTEFHELIRVVKSMLTPAL
partner: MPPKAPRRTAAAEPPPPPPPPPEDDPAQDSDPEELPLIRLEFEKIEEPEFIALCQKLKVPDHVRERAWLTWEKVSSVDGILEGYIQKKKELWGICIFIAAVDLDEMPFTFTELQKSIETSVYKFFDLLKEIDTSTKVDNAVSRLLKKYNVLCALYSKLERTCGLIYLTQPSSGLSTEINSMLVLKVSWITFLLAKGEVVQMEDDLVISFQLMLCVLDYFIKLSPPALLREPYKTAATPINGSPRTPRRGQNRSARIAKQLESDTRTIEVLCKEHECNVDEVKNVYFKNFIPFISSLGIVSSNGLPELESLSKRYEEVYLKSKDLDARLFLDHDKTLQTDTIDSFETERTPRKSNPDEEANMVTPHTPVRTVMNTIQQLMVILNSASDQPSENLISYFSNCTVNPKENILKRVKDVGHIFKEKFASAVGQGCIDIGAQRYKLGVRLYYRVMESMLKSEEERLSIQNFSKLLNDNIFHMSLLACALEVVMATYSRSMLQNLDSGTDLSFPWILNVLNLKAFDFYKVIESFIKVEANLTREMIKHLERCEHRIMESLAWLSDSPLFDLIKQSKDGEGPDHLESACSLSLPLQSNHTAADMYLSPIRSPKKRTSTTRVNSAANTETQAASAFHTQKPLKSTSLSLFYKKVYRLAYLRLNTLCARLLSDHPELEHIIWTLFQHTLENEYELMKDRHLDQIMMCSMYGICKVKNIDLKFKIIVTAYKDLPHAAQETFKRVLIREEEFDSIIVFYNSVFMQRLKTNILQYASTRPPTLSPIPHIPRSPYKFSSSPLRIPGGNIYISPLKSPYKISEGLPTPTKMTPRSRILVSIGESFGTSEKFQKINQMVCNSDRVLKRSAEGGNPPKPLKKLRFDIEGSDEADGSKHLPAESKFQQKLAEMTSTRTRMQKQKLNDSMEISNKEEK

Variants of: B1
Details: with rb_rat Rb1, P33568

Variant | effect of a mutation on the interaction
L63E | disrupting interaction
